{
  "source": "patent US20200255504A1",
  "about": "(VIB VZW, published 2020)",
  "binders": {"B1": {"name": "SA1 VHH (VHH)", "VHH": "QVQLQESGGGLVQAGGSLRLSCAASGRNISEYVMGWFRQAPGKEREFVAAISWSAGNIYYADSVKGRFTISRDNAKNTVHLQMNTLRPEDTAVYYCAAGRYSAWYVAAYEYDYWGQGTQVTVSS", "notes": "From WO2014/037419; made in E. coli WK6 periplasm; also called non-mutated SA1; original SA1 VHH"}, "B2": {"name": "SA1-biotinylated (VHH)", "VHH": "B1 VHH", "modifications": "labeled with NHS-PEG4-Biotin at a 5/1 molar ratio of biotin/VHH; labelled residues not determined", "notes": "also called biotinylated SA1"}, "B3": {"name": "SA1_S30K humanized variant 1 VHH (VHH)", "VHH": "B1 VHH with Q1E, A14P, S30K, A75S, Q119L", "notes": "also called h1"}, "B4": {"name": "SA1_S30K VHH (VHH)", "VHH": "B1 VHH with S30K", "notes": "Made in E. coli WK6 periplasm; also called SA1_S3OK; SA1_S30K mutant variant"}, "B5": {"name": "SA1_S30K humanized variant 4 VHH (VHH)", "VHH": "B1 VHH with Q1E, A14P, S30K, A75S, H80Y, T85S, Q119L", "notes": "also called h4"}, "B6": {"name": "SA1_S30K-biotinylated (VHH)", "VHH": "B1 VHH with S30K", "modifications": "labeled with NHS-PEG4-Biotin at a 5/1 molar ratio of biotin/VHH; the filing says the higher signal is likely related to the additional lysine at position 30; labelled residues not determined", "notes": "also called biotinylated SA1_S30K VHH"}, "B7": {"name": "SA1_S30K humanized variant 2 VHH (VHH)", "VHH": "B1 VHH with Q1E, A14P, S30K, A75S, H80Y, Q119L", "notes": "also called h2"}, "B8": {"name": "SA1_S30K humanized variant 3 VHH (VHH)", "VHH": "B1 VHH with Q1E, A14P, S30K, A75S, T85S, Q119L", "notes": "also called h3"}, "B9": {"name": "VHH-GFP-SA1_S30K (bispecific antibody)", "chain": "QVQLQESGGALVQPGGSLRLSCAASGFPVNRYSMRWYRQAPGKEREWVAGMSSAGDRSSYEDSVKGRFTISRDDARNTVYLQMNSLKPEDTAVYYCNVNVGFEYWGQGTQVTVSSGGSGGSGGSGGSGGSGGSGGSGGSGGSGGSGGSGGSGGSGGSGGSGGSGGSGGSGGSGGSQVQLQESGGGLVQAGGSLRLSCAASGRNIKEYVMGWFRQAPGKEREFVAAISWSAGNIYYADSVKGRFTISRDNAKNTVHLQMNTLRPEDTAVYYCAAGRYSAWYVAAYEYDYWGQGTQVTVSS", "notes": "also called VHH-GFP-SA26"}},
  "key": {"horse serum albumin": {"molecular_target": "T1, horse serum albumin (horse, UniProt P35747 25-607)", "T1 construct": "also called horse SA; horse albumin", "test": "BLI Octet RED96, albumin on AR2G sensors, VHH 800-12.5 nM, 1:1 model", "description": "(§1) 10 mg of lyophilized cat, dog, horse or pig serum (HSA) albumin (Sigma) was resuspended in 1 mL of PBS (10 μg/μL). This was used at 20 μg/mL in the “Ligand scouting immobilization conditions” protocol for AR2G Biosensors as detailed in Fortebio Technical Note 26, in conjunction with a Fortebio Octet Red96 machine. Only the pH 5.0 and pH 4.0 condition were tested.\n(§2) After data acquisition, the profiles were analyzed using the Octet Data analysis software v9.0."}, "dog serum albumin": {"molecular_target": "T2, dog serum albumin (dog, UniProt P49822 25-608)", "T2 construct": "also called dog SA; dog albumin", "test": "BLI Octet RED96, albumin on AR2G sensors, VHH 800-12.5 nM, 1:1 model", "description": "as §1, §2"}, "human serum albumin [1]": {"molecular_target": "T3, human serum albumin (human, UniProt P02768 25-609)", "T3 construct": "also called HSA; human albumin", "test": "BLI off-rate screen, periplasmic extract 1/4 in 75 mM NaAc pH 5.5, HSA on AR2G sensors", "description": "(§3) Off-rate was analyzed by BioLayer Interferometry on an Octet RED96 (Fortebio) instrument using human serum albumin (HSA) coated Octet AR2G sensors (HSA was coupled at 20 μg/mL at pH 5.0 as detailed in Fortebio Technical Note 26)."}, "human serum albumin [2]": {"molecular_target": "T3, human serum albumin", "test": "BLI Octet RED96, HSA on AR2G sensors, VHH 100-1.5 nM"}, "human serum albumin [3]": {"molecular_target": "T3, human serum albumin", "test": "BLI off-rate screen, periplasmic extract 1/4 in PBS, HSA on AR2G sensors", "description": "as §3"}, "rat serum albumin [4]": {"molecular_target": "T4, rat serum albumin (rat, UniProt P02770 25-608)", "T4 construct": "also called rat albumin", "test": "BLI Octet RED96, rat albumin, reference SA1_S30K"}, "human serum albumin [5]": {"molecular_target": "T3, human serum albumin", "test": "BLI Octet RED96, HSA on AR2G sensors, VHH 100-1.5 nM (column head says nM; values look like M)"}, "bovine serum albumin": {"molecular_target": "T5, bovine serum albumin (bovine, UniProt P02769 25-607)", "T5 construct": "also called bovine albumin", "test": "BLI Octet RED96, albumin on AR2G sensors"}, "cat serum albumin": {"molecular_target": "T6, cat serum albumin (cat, UniProt P49064 25-608)", "T6 construct": "also called cat SA", "test": "BLI Octet RED96, albumin on AR2G sensors", "description": "as §1, §2"}, "pig serum albumin": {"molecular_target": "T7, pig serum albumin (pig, UniProt P08835 25-607)", "T7 construct": "also called pig SA", "test": "BLI Octet RED96, albumin on AR2G sensors", "description": "as §1, §2"}, "mouse serum albumin [6]": {"molecular_target": "T8, mouse serum albumin (mouse, UniProt P07724 25-608)", "T8 construct": "also called mouse albumin", "test": "BLI Octet RED96, mouse albumin, reference SA1_S30K"}, "rabbit serum albumin": {"molecular_target": "T9, rabbit serum albumin (rabbit, UniProt P49065 25-608)", "T9 construct": "also called rabbit albumin", "test": "BLI Octet RED96, albumin on AR2G sensors, VHH 1600-25 nM"}, "rat serum albumin [7]": {"molecular_target": "T4, rat serum albumin", "test": "BLI Octet RED96, albumin on AR2G sensors, VHH 100-1.5 nM"}, "mouse serum albumin [8]": {"molecular_target": "T8, mouse serum albumin", "test": "BLI Octet RED96, albumin on AR2G sensors, VHH 100-1.5 nM"}, "[9]": {"molecular_target": "T10, cynomolgus monkey serum albumin (cynomolgus monkey)", "T10 construct": "also called cyno albumin", "test": "BLI Octet RED96, albumin on AR2G sensors, VHH 100-1.5 nM"}, "human serum albumin [10]": {"molecular_target": "T3, human serum albumin", "test": "BLI Octet RED96, albumin on AR2G sensors, VHH 100-1.5 nM"}, "[11]": {"molecular_target": "T10, cynomolgus monkey serum albumin", "test": "BLI Octet RED96, albumin on AR2G sensors (as in Example 4)"}, "human serum albumin [12]": {"molecular_target": "T3, human serum albumin", "test": "BLI Octet RED96, albumin on AR2G sensors (as in Example 4)"}, "human serum albumin [13]": {"molecular_target": "T3, human serum albumin", "test": "BLI Octet RED96, HSA on AR2G sensors"}, "human serum albumin [14]": {"molecular_target": "T3, human serum albumin", "test": "affinity determination, method not stated"}},
  "note": "Substitutions are numbered along the chain they refer to. “And” between values parts separate entries of the source, which are not always exact repeats. Identical values can stand only once.",
  "data": [
    {"binder": "B1", "values": [
      {"measurement": "Kd", "setting": "horse serum albumin", "value": 121, "unit": "nM"},
      {"measurement": "koff", "setting": "horse serum albumin", "value": 0.00483, "unit": "s⁻¹"},
      {"measurement": "kon", "setting": "horse serum albumin", "value": 52100, "unit": "M⁻¹ s⁻¹"},
      {"measurement": "Kd", "setting": "dog serum albumin", "value": 126, "unit": "nM"},
      {"measurement": "koff", "setting": "dog serum albumin", "value": 0.0158, "unit": "s⁻¹"},
      {"measurement": "kon", "setting": "dog serum albumin", "value": 123000, "unit": "M⁻¹ s⁻¹"},
      {"measurement": "koff", "setting": "human serum albumin [1]", "value": "0.000972 s⁻¹ and 0.00119 s⁻¹"},
      {"measurement": "koff", "setting": "human serum albumin [2]", "value": 0.00022, "unit": "s⁻¹"},
      {"measurement": "koff", "setting": "human serum albumin [3]", "value": "0.00222 s⁻¹ and 0.00199 s⁻¹"},
      {"measurement": "fold lower affinity than SA1_S30K", "setting": "rat serum albumin [4]", "value": 20, "unit": "fold"},
      {"measurement": "Kd", "setting": "human serum albumin [5]", "value": 1.15, "unit": "nM"},
      {"measurement": "binding result", "setting": "bovine serum albumin", "value": "no binding"},
      {"measurement": "binding result", "setting": "cat serum albumin", "value": "no binding (tested: 800 nM (highest concentration))"},
      {"measurement": "binding result", "setting": "pig serum albumin", "value": "no binding (tested: 800 nM (highest concentration))"},
      {"measurement": "fold lower affinity than SA1_S30K", "setting": "mouse serum albumin [6]", "value": 2, "unit": "fold"},
      {"measurement": "Kd", "setting": "rabbit serum albumin", "value": 600, "unit": "nM"},
      {"measurement": "Kd", "setting": "rat serum albumin [7]", "value": 0.45, "unit": "nM"},
      {"measurement": "Kd", "setting": "mouse serum albumin [8]", "value": 0.66, "unit": "nM"},
      {"measurement": "Kd", "setting": "[9]", "value": 0.37, "unit": "nM"},
      {"measurement": "Kd", "setting": "human serum albumin [10]", "value": 0.9, "unit": "nM"}
    ]},
    {"binder": "B2", "values": [
      {"measurement": "koff", "setting": "human serum albumin [2]", "value": 0.000166, "unit": "s⁻¹"},
      {"measurement": "Kd", "setting": "human serum albumin [5]", "value": 1.97, "unit": "nM"}
    ]},
    {"binder": "B3", "values": [
      {"measurement": "Kd", "setting": "[11]", "value": 0.36, "unit": "nM"},
      {"measurement": "Kd", "setting": "human serum albumin [12]", "value": 1.33, "unit": "nM"}
    ]},
    {"binder": "B4", "values": [
      {"measurement": "Kd", "setting": "horse serum albumin", "value": 201, "unit": "nM"},
      {"measurement": "koff", "setting": "horse serum albumin", "value": 0.0103, "unit": "s⁻¹"},
      {"measurement": "kon", "setting": "horse serum albumin", "value": 59100, "unit": "M⁻¹ s⁻¹"},
      {"measurement": "Kd", "setting": "dog serum albumin", "value": 160, "unit": "nM"},
      {"measurement": "koff", "setting": "dog serum albumin", "value": 0.0181, "unit": "s⁻¹"},
      {"measurement": "kon", "setting": "dog serum albumin", "value": 166000, "unit": "M⁻¹ s⁻¹"},
      {"measurement": "Response", "setting": "human serum albumin [1]", "value": 0.438, "unit": "nm"},
      {"measurement": "koff", "setting": "human serum albumin [1]", "value": 0.00181, "unit": "s⁻¹"},
      {"measurement": "koff", "setting": "human serum albumin [2]", "value": 0.000203, "unit": "s⁻¹"},
      {"measurement": "Response", "setting": "human serum albumin [3]", "value": 0.25, "unit": "nm"},
      {"measurement": "koff", "setting": "human serum albumin [3]", "value": 0.00141, "unit": "s⁻¹"},
      {"measurement": "Kd", "setting": "human serum albumin [5]", "value": 0.825, "unit": "nM"},
      {"measurement": "binding result", "setting": "bovine serum albumin", "value": "no binding"},
      {"measurement": "Kd", "setting": "[11]", "value": 0.57, "unit": "nM"},
      {"measurement": "Kd", "setting": "human serum albumin [12]", "value": 1.28, "unit": "nM"},
      {"measurement": "binding result", "setting": "cat serum albumin", "value": "no binding (tested: 800 nM (highest concentration))"},
      {"measurement": "binding result", "setting": "pig serum albumin", "value": "no binding (tested: 800 nM (highest concentration))"},
      {"measurement": "Kd", "setting": "rat serum albumin [7]", "value": 0.02, "unit": "nM"},
      {"measurement": "Kd", "setting": "mouse serum albumin [8]", "value": 0.29, "unit": "nM"},
      {"measurement": "Kd", "setting": "[9]", "value": 0.38, "unit": "nM"},
      {"measurement": "Kd", "setting": "human serum albumin [10]", "value": 0.91, "unit": "nM"}
    ]},
    {"binder": "B5", "values": [
      {"measurement": "Kd", "setting": "[11]", "value": 0.32, "unit": "nM"},
      {"measurement": "Kd", "setting": "human serum albumin [12]", "value": 2.11, "unit": "nM"}
    ]},
    {"binder": "B6", "values": [
      {"measurement": "koff", "setting": "human serum albumin [2]", "value": 0.000187, "unit": "s⁻¹"},
      {"measurement": "Kd", "setting": "human serum albumin [5]", "value": 1.49, "unit": "nM"},
      {"measurement": "fold change in KD or kon or koff against the unbiotinylated VHH", "setting": "human serum albumin [13]", "value": "< 2", "unit": "fold"}
    ]},
    {"binder": "B7", "values": [
      {"measurement": "Kd", "setting": "[11]", "value": 0.5, "unit": "nM"},
      {"measurement": "Kd", "setting": "human serum albumin [12]", "value": 1.53, "unit": "nM"}
    ]},
    {"binder": "B8", "values": [
      {"measurement": "Kd", "setting": "[11]", "value": 0.29, "unit": "nM"},
      {"measurement": "Kd", "setting": "human serum albumin [12]", "value": 1.64, "unit": "nM"}
    ]},
    {"binder": "B9", "values": [
      {"measurement": "Kd", "setting": "human serum albumin [14]", "value": 5, "unit": "nM"}
    ]}
  ]
}
